Drawing on article PMC11468790, “New Bacterial Aryl Sulfotransferases: Effective Tools for Sulfation of Polyphenols” (Journal of Agricultural and Food Chemistry, 2024), this text covers Km, kcat and kcat/Km for 1 protein.

For orientation: Km means the concentration of substrate that gives half-maximal velocity. What is called kcat is the maximal rate divided by the concentration of active sites. The term kcat/Km denotes the turnover number divided by the Michaelis constant.

Substrate in the data set: O=[N+]([O-])c1ccc(OS(=O)(=O)O)cc1
The data set can be described thus: purified protein. It counts as biochemical, Escherichia coli. Conditions: varied donor pNPS 0.02-50 mM, acceptor phenol (5-200 mM), 30 °C, activity buffer Tris-glycine pH 8.9.

B1: EcAST (Escherichia coli CFT073) (protein)
chain: AGFKPAPPAGQLGAVIVDPYGNAPLTALVDLDSHVISDVKVTVHGKGEKGVEISYPVGQESLKTYDGVPIFGLYQKFANKVTVEWKENGKVMKDDYVVHTSAIVNNYMDNRSISDLQQTKVIKVAPGFEDRLYLVNTHTFTAQGSDLHWHGEKDKNAGILDAGPATGALPFDIAPFTFIVDTEGEYRWWLDQDTFYDGRDRDINKRGYLMGIRETPRGTFTAVQGQHWYEFDMMGQVLEDHKLPRGFADATHESIETPNGTVLLRVGKSNYRRDDGVHVTTIRDHILEVDKSGRVVDVWDLTKILDPKRDALLGALDAGAVCVNVDLAHAGQQAKLEPDTPFGDALGVGPGRNWAHVNSIAYDAKDDSIILSSRHQGVVKIGRDKQVKWILAPSKGWEKPLASKLLKPVDANGKPITCNENGLCENSDFDFTYTQHTAWISSKGTLTIFDNGDGRHLEQPALPTMKYSRFVEYKIDEKKGTVQQVWEYGKERGYDFYSPITSIIEYQADRNTMFGFGGSIHLFDVGQPTVGKLNEIDYKTKEVKVEIDVLSDKPNQTHYRALLVRPQQMFK
notes: C-terminal His6 tag, pET-26b(+) NcoI/SacI, E. coli BL21(DE3)pLysS, IMAC, ca. 70 kDa
For the protein B1, the Michaelis-Menten constant (Km) turned out to be 710 ± 30 µM, the kcat was 41.1 ± 0.5 s⁻¹ and the kcat/Km is 57000 M⁻¹ s⁻¹.
